Data on four molecules can be found in PMC6850040 (Iubmb Life, 2019).

Data set [1] addresses OxDC (Bacillus subtilis, UniProt O34714). As to the kind of experiment: oxalate decarboxylase activity, Michaelis-Menten fit. The format is biochemical. The settings on record: pH 4.2; 140 mM NaCl; no o-phenylenediamine; potassium oxalate 0.1-250 mM.
In data set [2] the target is T1, OxDC (Bacillus subtilis, UniProt O34714, S161D/E162S/N163S/S164N).
T1 construct: synthetic cDNA (GeneScript) in pET24a(+), thrombin site and C-terminal 6xHis; expressed in E. coli; two-step purification, untagged enzyme used; homohexamer 264 kDa, Mn-dependent
Briefly: turbidity at […] nm, protection from aggregation. The format is binding. The settings on record: 50 mM sodium glyoxylate; 16 mM Tris-HCl pH 7.2, 140 mM NaCl, 25 C; substrate analogue, active site (indirect evidence).

Substrate in data set [3]: O=C(O)C(=O)O
Briefly: purified protein. The conditions noted are these: pH 4.2, 140 mM NaCl, potassium oxalate 10-200 mM.

Data set [4] concerns the molecule itself. Briefly: dynamic light scattering; 0.5 mg/mL enzyme, 25°C, 52 mM sodium acetate pH 4.2, 140 mM NaCl; self-association (hexamer).

On to `O=C(O)C(=O)O` [oxalate], for which the Km in data set [1] stood at 8 ± 0.8 mM.
`O=CC(=O)O` [sodium glyoxylate]: the “turbidity at 600 nm, protection from aggregation” value in data set [2] was “We found that NaGlyox prevents aggregation”.

B1: OxDC‐DSSN (OxDC bearing the Ser161Asp, Glu162Ser, Asn163Ser, Ser164Asn mutations) (enzyme, Bacillus subtilis)
chain: MKKQNDIPQPIRGDKGATVKIPRNIERDRQNPDMLVPPETDHGTVSNMKFSFSDTHNRLEKGGYAREVTVRELPISENLASVNMRLKPGAIRELHWHKEAEWAYMIYGSARVTIVDEKGRSFIDDVGEGDLWYFPSGLPHSIQALEEGAEFLLVFDDGSFDSSNTFQLTDWLAHTPKEVIAANFGVTKEEISNLPGKEKYIFENQLPGSLKDDIVEGPNGEVPYPFTYRLLEQEPIESEGGKVYIADSTNFKVSKTIASALVTVEPGAMRELHWHPNTHEWQYYISGKARMTVFASDGHARTFNYQAGDVGYVPFAMGHYVENIGDEPLVFLEIFKDDHYADVSLNQWLAMLPETFVQAHLDLGKDFTDVLSKEKHPVVKKKCSK
notes: Oxalate decarboxylase (OxDC) of Bacillus subtilis with four substitutions in the lid; made by site-directed mutagenesis of pET24a-OxDC (thrombin cleavage site and 6xHis tag at the C-terminus); The PDB entries are of the wild-type parent; source: two-step purification giving untagged protein; not shown: His6, C-terminal, cleaved
With B1, in data set [3], the Michaelis-Menten constant (Km) turned out to be 0.30 ± 0.07 mM, the maximum rate (Vmax) was 2 µmol/min/mg and the kcat came out at 1.4 s⁻¹. For the same molecule, in data set [4], the “stoichiometry N” value is 6.

B2: Oxalate decarboxylase (OxDC) from Bacillus subtilis, wild type (enzyme)
chain: MKKQNDIPQPIRGDKGATVKIPRNIERDRQNPDMLVPPETDHGTVSNMKFSFSDTHNRLEKGGYAREVTVRELPISENLASVNMRLKPGAIRELHWHKEAEWAYMIYGSARVTIVDEKGRSFIDDVGEGDLWYFPSGLPHSIQALEEGAEFLLVFDDGSFSENSTFQLTDWLAHTPKEVIAANFGVTKEEISNLPGKEKYIFENQLPGSLKDDIVEGPNGEVPYPFTYRLLEQEPIESEGGKVYIADSTNFKVSKTIASALVTVEPGAMRELHWHPNTHEWQYYISGKARMTVFASDGHARTFNYQAGDVGYVPFAMGHYVENIGDEPLVFLEIFKDDHYADVSLNQWLAMLPETFVQAHLDLGKDFTDVLSKEKHPVVKKKCSK
notes: Oxalate decarboxylase (OxDC) of Bacillus subtilis; cDNA with a thrombin cleavage site and a 6xHis tag at the C-terminus in pET24a(+); homohexamer of 264 kDa; Residues of the thrombin site may remain at the C-terminus after cleavage; Purification details are in the Supporting Information; also called wild‐type OxDC; source: two-step purification giving untagged protein; not shown: His6, …
Consider B2, for which the “stoichiometry N” value in data set [4] was determined as 6.
